Test: yeast display, Sf9 membrane polyspecificity reagent, FACS + sequencing; frameworks hold sequencing errors
Summary of the method: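 Synthetic nanobody libraries on Saccharomyces cerevisiae BJ5465 were galactose-induced for 36–48 hours, stained 1 hour at 4 °C with 10% biotinylated, detergent-solubilized Sf9 membrane reagent and enriched on streptavidin microbeads. FACS then separated cells into low and high (top ~1%) gates by anti-HA (expression) and streptavidin (reagent binding) fluorescence. Genes were colony-PCR amplified, MiSeq 2 × 250 sequenced and CDR-length filtered. A clone's polyreactivity label is that of its gate of origin.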

| Sequence | polyreactivity (PSR sort gate) |
| --- | --- |
| QDQLVESGGGLVQAGGSLRLSCAASGRTFADYAMGWYRQAPGKERELVAAISWRGGSTYYADSVKGRFTISRDNAKNTVYLQLNSLNPEDTAVYYCNKAYPADYDYWGQGTQVTVSS | low polyreactivity |
| QDQLVESGGGLVQAGGSLRLSCAASGRTFDTNAMGWYRQAPGKERELVASISWSTGSTYYADSVKGRFTISRDNAKNTVYLQMNSLKPEDTAVYYCAARKWFRYKGRSRDYWGQGTQVTVSS | high polyreactivity |
| QDQLVESGGGLVQAGGSLRLSCAASGRTFGPNAMGWYRQAPGKERELVAAITGGGSTYYADSVKGRFTISRDNAKNTVYLQMNSLKPEDTAVYYCSNRGQGFHFGRDYWGQGTQVTVSS | low polyreactivity |
| QDQLVESGGGLVQAGGSLRLSCAASGRTFGPYAMGWYRQAPGKEREFVAAITWRGGRTNYADSVKGRFTISRDNAKNTVYLQMNSLKPEDTAVYYCNAVISPHQWIRGGDSWGQGTQVTVSS | low polyreactivity |
| QDQLVESGGGLVQAGGSLRLSCAASGRTFKRYAMGWYRQAPGKERELVAAITFSGGSTYYADSVKGRFTISRDNAKNTVYLQMNSLKPEDTAVYYCAAGYRWTGGLKYDFWGQGTQVTVSS | high polyreactivity |
| QDQLVESGGGLVQAGGSLRLSCAASGRTFNPYAMGSYRQAPGKERELVAAIRWRGTRTYYADSVKGRFTISRDNAKNTVYLQMNSLKPEDTAVYYCAADDPHSREMDYWGQGTQVTVSS | high polyreactivity |
| QDQLVESGGGLVQAGGSLRLSCAASGRTFRAYAMGWSRQAPGKERELVASISRRGGSTYYADSVKGRFTISRDNAKNTDYLQMNSLNPEDTAVYYCAASDKYLQYDDWGQGTEVTVSS | high polyreactivity |
| QDQLVESGGGLVQAGGSLRLSCAASGRTFRRNAMGWYRQAPGKERELVAAITWRGTSTYYADSVKGRFTISRDNAKNTVYLQMNSLKPEDTAVYYCAAVVKDSRPYQAYVGSIHRDYWGQGTQVTVSS | high polyreactivity |
| QDQLVESGGGLVQAGGSLRLSCAASGRTFWRYALGWYRQAPGKEREMVAAISSGGITYYADSVKGRFTISRDNAKNTVYLQMNSLKPEDTAVYYCARYGPYESSYHYDYWGQGTQVTVSS | high polyreactivity |
| QDQLVESGGGLVQAGGSLRLSCAASGRTLYYYTMGWYRQAPGKERELVAAITWSGGSTYADSVKGRFTISRDNAKNTVYLQMNSLKPEDTAVYYCAAVRTSRFDYWGQGTQVTVSS | high polyreactivity |
| QDQLVESGGGLVQAGGSLRLSCAASGRTYASNAMGWYRQAPGKERELVAAITYSGSSTYYADSVKGRFTISRDNAKNTVYLQMNSLKPEDTAVYYCGKGGRRWTYKTWKGYDYWGQGTQVTVSS | high polyreactivity |
| QDQLVESGGGLVQAGGSLRLSCAASGSIFGPYAMGWYRQAPGKERELVAAITYRGDSTYYADSVKGRFTISRDYAKNTVYLQMNSLKPEDTAVYYCAAEYIYDLWEEYWGQGTQVTVSS | high polyreactivity |
| QDQLVESGGGLVQAGGSLRLSCAASGSIFGYNDMGWYRQAPGKERELVATITWGGGRTRYADSVKGRFTSSRDNAKNTVYLHMNSLKPEVTAVYYCAADVLRISTLLFRGPGFDSWGQGTQVTVSS | low polyreactivity |
| QDQLVESGGGLVQAGGSLRLSCAASGSIFPVYDMGWSRQAPGTEREMVAAISVSGGSTYYADSVKGRFTISRDNAKNTVYLQMKSLKPEDTAVYYCIADVHLYWYWYYEREDYWGQGTQVTVSS | low polyreactivity |
| QDQLVESGGGLVQAGGSLRLSCAASGSIFRPNAMGWYRQAHGKERELVAAITYSTGSTYYADSVKGRFTISRDNAKNTVYLQMNSLKPEDTAVYYCAARFWRWLFPFDYLGQGTQVTVSS | high polyreactivity |
| QDQLVESGGGLVQAGGSLRLSCAASGSIFRTYAMGWYRQAPGKERELVATITYSDGNTYYADSVKGRFTISRDNAKNTVYLQMNSLKPEDTAFYYSNADGIYASISGYRYDYWGQGTLVTVSS | low polyreactivity |
| QDQLVESGGGLVQAGGSLRLSCAASGSIFRYYVRGWYREAPGKERELVAAISKSGGSTYYADSVKGRFTISRDNAKNTVYLQMNSLKPEDTAVYYCAAGNTRGGDFNYWGQGTQVTVSS | high polyreactivity |

Reference: the nanobody polyreactivity screen of Harvey et al. (2022)
